Data taken from patent US5462743A, “Substance transfer system for topical application” (Medipro Sciences Limited, priority 1993, dated 1995).
“And” between values parts separate entries of the source, which are not always exact repeats. Identical values can stand only once.

What was measured:
[1] = tested on: cancerous body cells; details: subsequently converted into protoporphyrin IX; cited from earlier work
[2] = In vitro permeation through intact skin, patch of FIGS. 14 and 15 (Example 6); assay type: in vitro ADME, Hairless Guinea Pig
Experimental: (§1) The wells were filled with porous plastic.
In addition to the transdermal patches using porous plastic depots as described in Example 5, patches containing fibrous depots were also tested. The fibrous depots, also measured 3 mm in length were cut from an aligned bonded cellulose acetate rod, 3 mm in diameter (R14236 from American Filtrona Co.).

[3] = In vitro skin permeation, patch of FIG. 2 (Example 1); details: compromised skin, 37° C, contact area 0.21 cm^2, about 1 mg loaded, less than ideal intimate contact
From the text: (§2) The skin penetration of model compounds from a transdermal patch constructed according to FIG. 2 was established in vitro by a permeation study. […] The array measured 1.7×1.7 cm and was centrally located. […] On this outer surface of the adhesive layer, but between the slightly protruding silicone tubing was cast a 30% solution of silicone sealant in hexane. The channels were filled with filaments of open cell polyurethane foam. On top of the dry silicone layer was placed a reservoir support layer consisting of a 1.5 mm thick sheet of the same open-cell polyurethane foam, 2.0 cm in diameter. The outer, barrier layer of the patch was a 3.5 cm diameter section of DERMAFLEX V-300-F FLESH (vinyl coated with a medical grade acrylic adhesive, FLEXCON Company). The reservoir and channels of the patch were loaded with a solution which contained a fluorescently labelled model compound (polypeptides or polysaccharide). […] The sections of modified skin (stratum corneum removed) were excised from the Hairless Guinea Pig and mounted on the diffusion cell above a solution of isotonic saline such that the dermal side of skin was in contact with the magnetically stirred receptor liquid. The device was brought into intimate contact with the epidermal surface of the skin. The effective contact area of the solution with the skin through the channels was 0.21 cm^2. […]

[4] = In vitro skin permeation, patch of FIG. 3 (Example 4); assay type: in vitro ADME, Hairless Guinea Pig; details: porous plastic depots
From the text: […] […] Duplicate samples of each test compound were run.
skin compatible adhesive, H-566 coated onto a white polyethylene closed cell foam, 0.8 mm thick (Dermaflex PEF 32-W H-566 from Flexcon Company, Inc.) was used, perforated with an array of 69 cylindrical channels approximately 0.84 mm in diameter;
the channels were not lined; instead they were filled with cylindrical sections of porous plastic material (Hydrophilic HDPE with medium pore size, NO. X-4899, Porex Technologies);
the silicone sealant was absent; a reservoir support layer consisting of 1.6 mm thick sheet of porous plastic material, 2.0 cm in diameter (Hydrophilic HDPE with coarse pore size, NO. X-4916, Porex Technologies) was placed directly above the array of 69 channels;
Some variability in results, as between attempted duplicates, was observed, largely attributable to uncertain intimate contact between the reservoir and the skin contacting matrices.

[5] = In vitro skin permeation, patch of FIGS. 14 and 15, dried drug matrix (Example 7); assay type: in vitro ADME, Hairless Guinea Pig; details: freeze dried depots, porous plastic matrix
From the text: as §1
The drug depots were hydrated with a suitable solubilizing solution just before the start of the permeation study, as illustrated in FIG. 6.

[6] = In vitro skin permeation, patch of FIGS. 14 and 15, liquid reservoir (Example 5); assay type: in vitro ADME, Hairless Guinea Pig; details: porous plastic depots, contact area 1.1 cm^2
[7] = in vivo; cited from earlier work
[8] = In vitro skin permeation, patch of FIG. 2 with H566 adhesive (Example 2); details: compromised skin, approximately 1 mg loaded, intimate contact maintained
From the text: as §2

[9] = in the bloodstream; cited from earlier work

## NCC(=O)CCC(=O)O [5-aminolevulinic acid]
[1]
  absorption by cancerous body cells: preferentially absorbed by cancerous body cells

## C[C@]12CC[C@@H]3c4ccc(O)cc4CC[C@H]3[C@@H]1CC[C@@H]2O [Estradiol, estradiol]
[2]; fibrous matrix, 8 hrs
  Amount Permeated (Cumulative): 0.19 Micrograms and 0.34 Micrograms
[2]; fibrous matrix, 24 hrs
  Amount Permeated (Cumulative): 1.74 Micrograms and 2.93 Micrograms
[2]; fibrous matrix, 48 hrs
  Amount Permeated (Cumulative): 2.99 Micrograms and 4.83 Micrograms
[2]; porous plastic matrix, 8 hrs
  Amount Permeated (Cumulative): 1.01 Micrograms and 1.03 Micrograms
[2]; porous plastic matrix, 24 hrs
  Amount Permeated (Cumulative): 6.14 Micrograms and 6.87 Micrograms
[2]; porous plastic matrix, 48 hrs
  Amount Permeated (Cumulative): 9.90 Micrograms and 10.69 Micrograms

## Casein
[3]
  Amount Permeated in 20 Hrs.: 0.05 Micrograms and 0.03 Micrograms
[4]
  Amount Permeated in 20 Hrs.: 75.98 Micrograms and 104.98 Micrograms

## Cytochrome C: carbon-14 labelled model compound, polypeptide, 12,300, from horse heart
[5]; 4 hrs
  Amount Permeated (Cumulative): 40.4 Micrograms
[5]; 8 hrs
  Amount Permeated (Cumulative): 124.2 Micrograms and 119.9 Micrograms
[5]; 24 hrs
  Amount Permeated (Cumulative): 412.6 Micrograms and 363.1 Micrograms
[5]; 48 hrs
  Amount Permeated (Cumulative): 642.7 Micrograms and 560.6 Micrograms
[6]; 4 hrs
  Amount Permeated (Cumulated): 117.8 micrograms and 103.4 micrograms
[6]; 8 hrs
  Amount Permeated (Cumulated): 257.5 micrograms and 239.8 micrograms
[6]; 24 hrs
  Amount Permeated (Cumulated): 581.6 micrograms and 572.6 micrograms
[6]; 48 hrs
  Amount Permeated (Cumulated): 740.0 micrograms and 728.3 micrograms

## Hyaluronic acid [HA]
[7]
  accumulation in HA-depleted areas: preferentially accumulates in these depleted areas

## Insulin
[3]
  Amount Permeated in 20 Hrs.: 0.04 Micrograms and 0.05 Micrograms
[4]
  Amount Permeated in 20 Hrs.: 41.96 Micrograms and 22.78 Micrograms
[8]
  Amount Permeated in 20 Hrs.: 10.85 Micrograms and 8.30 Micrograms

## human growth hormone: polypeptide drug, human growth hormone (22,000 daltons)
[9]
  half-life: less than 25 minutes

## parathyroid hormone: polypeptide drug, parathyroid hormone (9,500 daltons)
[9]
  half-life: less than 15 minutes
